Broadly, the IC50 is the concentration needed to halve the response being measured.

Here are results for 6 substances from publication PMC5145181, “Structural Mapping and Functional Characterization of Zebrafish Class B G-Protein Coupled Receptor (GPCR) with Dual Ligand Selectivity towards GLP-1 and Glucagon” (PLoS ONE, 2016).

Assay [1] has as its target zebrafish class B G-protein coupled receptor (zfGPCR), dual zfGLP-1R/GCGR (zebrafish (Danio rerio)). Kind of assay: radioligand binding.
Assay [2] has the same target. Kind of assay: radioligand binding; competitive displacement of 125I-hGLP-1(7-36)amide (100,000 cpm/well) from recombinant zfGPCR on transiently transfected COS-7 cells in 24-well plates; cold peptide pM to μM in triplicate; 16-18 h at 4°C; IC50 by four-parameter logistic fit (Prism 4). Background: Loss of bound radioactivity is the signal in a displacement assay; it reports binding, not function.

For assay [3] the target is unchanged. Kind of assay: radioligand binding; competitive displacement of 125I-exendin(9-39) (100,000 cpm/well) from recombinant zfGPCR on transiently transfected COS-7 cells in 24-well plates; cold peptide pM to μM in triplicate; 16-18 h at 4°C; IC50 by four-parameter logistic fit (Prism 4).

Chain of human GLP-1(7-36)amide (hGLP-1) (P01275 98-127): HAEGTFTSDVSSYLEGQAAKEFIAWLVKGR
Chain of human glucagon (P01275 53-81): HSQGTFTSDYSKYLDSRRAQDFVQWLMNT

For the substance “human glucagon (from UniProt P01275 53-81) (peptide)”, the IC50 in assay [1] is 67 nM.
On to zebrafish GLP-1 (zfGLP-1) (peptide), for which the figures for the IC50 in assay [2] and in assay [1] were 2.1 nM and 290 nM, respectively.
In the case of “human GLP-1(7-36)amide (hGLP-1) (from UniProt P01275 98-127) (peptide)”, the IC50 in assay [2] was found to be 3.6 nM; in assay [1], 178 nM.
For exendin(9-39) (peptide), the figures for the IC50 in assay [3] and in assay [2] were 4.21 nM and 5.8 nM, respectively.
For “exendin-4 (from UniProt P26349 48-87) (peptide)” the same measures were 1 nM and 0.48 nM.
For zebrafish glucagon (peptide), the IC50 is 2.4 nM in assay [2] and 106 nM in assay [1].
